Columns and labels:
[1] = molecular target: T1, Arabidopsis thaliana PHYTOCHROME A SIGNAL TRANSDUCTION1 (Arabidopsis thaliana, UniProt Q9LDL7 1-490); test: yeast two-hybrid
T1 construct: 490 aa; Y2H fusion domains not described; also called PAT1; At5g48150
T1 sequence: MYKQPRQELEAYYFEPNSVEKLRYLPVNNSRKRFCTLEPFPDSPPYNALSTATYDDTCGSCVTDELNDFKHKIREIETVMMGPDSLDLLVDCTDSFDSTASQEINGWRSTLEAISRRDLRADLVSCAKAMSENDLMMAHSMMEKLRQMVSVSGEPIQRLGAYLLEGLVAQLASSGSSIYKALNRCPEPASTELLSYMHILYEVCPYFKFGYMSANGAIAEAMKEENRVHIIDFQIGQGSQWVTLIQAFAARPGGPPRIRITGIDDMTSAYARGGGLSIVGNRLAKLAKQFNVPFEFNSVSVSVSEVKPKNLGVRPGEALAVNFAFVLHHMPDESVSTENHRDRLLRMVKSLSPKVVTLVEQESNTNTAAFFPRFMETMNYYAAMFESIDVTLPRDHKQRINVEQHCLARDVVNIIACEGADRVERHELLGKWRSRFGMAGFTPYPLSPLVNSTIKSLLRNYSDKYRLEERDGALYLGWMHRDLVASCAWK

[2] = molecular target: T2, Arabidopsis thaliana SCARECROW-LIKE 21 (Arabidopsis thaliana, UniProt Q9S7H5 1-413); test: yeast two-hybrid with ERF115 fragments
T2 construct: Y2H fusion domains not described; Also the endogenous protein co-purifying in the ERF115 TAP; also called SCL21; AT2G04890
T2 sequence: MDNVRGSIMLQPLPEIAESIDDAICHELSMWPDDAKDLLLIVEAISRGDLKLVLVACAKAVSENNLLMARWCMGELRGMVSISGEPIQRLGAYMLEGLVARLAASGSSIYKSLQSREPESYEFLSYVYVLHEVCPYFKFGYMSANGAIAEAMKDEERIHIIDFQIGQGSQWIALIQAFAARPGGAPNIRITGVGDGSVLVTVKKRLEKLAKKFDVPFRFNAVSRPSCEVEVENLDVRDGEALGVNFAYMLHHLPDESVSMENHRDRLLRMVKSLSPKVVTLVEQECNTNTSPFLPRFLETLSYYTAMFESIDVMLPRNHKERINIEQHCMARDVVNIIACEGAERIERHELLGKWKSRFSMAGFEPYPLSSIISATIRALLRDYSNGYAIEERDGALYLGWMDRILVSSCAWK
Procedure: FIGS. 1A-1L. ERF115 interacts with SCL21 and PAT1. FIG. 1A, Protein interactions identified through TAP using ERF115 and SCL21 as bait. Arrowheads point towards co-purifying proteins. FIG. 1B, Yeast two-hybrid interaction of ERF115 full length and fragments with SCL21 and PAT1. Growth was verified on control medium (+HIS) or selective medium (−HIS) supplemented with 15 mM 3-Amino-1,2,4-triazole (3-AT), using β-glucuronidase (GUS) as a negative control. FIG. 1C, Yeast two-hybrid interaction of ERF2 and ERF6 without (−) or fused to the conserved ERF115 interaction motif (+) with SCL21. The assay was performed similar to (FIG. 1B). […], Root tips expressing ERF115 (dots) (FIGS. 1D and 1E), SCL21 (no expression visible) (FIGS. 1F and 1G), and PAT1 (dots) (FIGS. 1H And 1I) under control conditions (FIGS. 1D, 1F, and 1H) or treated with bleomycin (FIGS. 1E, 1G, and 1I). Arrowheads indicate the quiescent center (QC). Cell walls are counterstained with propidium iodide (PI). Bars=50 μm. FIGS. 1J-1L, Expression of PAT1 (green) and ERF115 (red) in root tips 10 h15 to 11 h30 after recovery from bleomycin treatment. […] Cell walls are counterstained (white) by SCRI Renaissance 2200 dye. Bars=25 μm.

binding result [1]: binds
binding result [2]: binds
B1: Arabidopsis thaliana ERF115 A-fragment (N-terminal sequence that precedes the APETALA2 domain) (other)
chain: MANSGNYGKRPFRGDESDEKKEADDDENIFPFFSARSQYDMRAMVSALTQVIGNQSSSHDNNQHQPVVYNQQDPNPPAPPTQDQGLLRK
notes: Y2H fusion domains not described

From US20240294931A1 (VIB VZW, published 2024)
